Data on two molecules can be found in article PMC10989989, “The archaeal KEOPS complex possesses a functional Gon7 homolog and has an essential function independent of the cellular t^6A modification level” (mLife, 2023).

The target of experiment [1] is Flag-tagged SisKae1 co-expressed with His-tagged SisPcc1-like in E. coli (Saccharolobus islandicus REY15A). As to the kind of experiment: SEC; co-expressed Kae1/Pcc1-like, Pcc1-like about 10-fold in excess of Kae1; Superdex 200 Increase 10/300; 200 mM NaCl, 50 mM Tris-HCl pH 8.0, 5% glycerol. A general note: SEC sorts molecules by how far they enter the pores of the column.

Experiment [2] deals with T1, Kae1‐Pcc1 subcomplex (2Kae1:2Pcc1), co-expressed in E. coli (Saccharolobus islandicus REY15A, UniProt F0NFC9 1-331; F0NF65 1-91).
T1 construct: Kae1 of Saccharolobus islandicus REY15A, no tag; Pcc1 of Saccharolobus islandicus REY15A, encoded by SiRe_1278; The preformed complex (chains as m11 and m16) to which Pcc1-like was added; after addition the product is 1:1:1; also called 2Kae1:2Pcc1 subcomplex; Kae1‐Pcc1‐Pcc1‐Kae1; source: E. coli BL21(DE3)-Codon plus-RIL, pRSF-Duet1, no-tagged SisKae1 co-expressed with His-tagged SisPcc1; …
T1 sequence (looked up) 1: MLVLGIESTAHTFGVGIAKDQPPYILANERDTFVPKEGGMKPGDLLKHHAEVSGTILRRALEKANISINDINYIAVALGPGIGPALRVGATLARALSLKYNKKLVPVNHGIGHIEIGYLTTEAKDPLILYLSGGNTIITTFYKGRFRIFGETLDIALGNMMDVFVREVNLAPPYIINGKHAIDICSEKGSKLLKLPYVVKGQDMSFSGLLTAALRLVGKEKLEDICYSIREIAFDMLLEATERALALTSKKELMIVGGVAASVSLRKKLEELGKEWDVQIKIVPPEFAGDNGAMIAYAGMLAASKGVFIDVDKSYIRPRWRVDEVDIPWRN
T1 sequence (looked up) 2: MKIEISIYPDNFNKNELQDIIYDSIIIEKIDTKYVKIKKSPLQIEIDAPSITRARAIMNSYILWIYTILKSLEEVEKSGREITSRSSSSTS
As to the kind of experiment: SEC; 1.5-fold Pcc1-like added to the 2Kae1:2Pcc1 subcomplex, 60°C for 30 min before loading; Superdex 200 Increase 10/300; 200 mM NaCl, 50 mM Tris-HCl pH 8.0, 5% glycerol. The note with it: both partners purified.

In experiment [3] the target is SisKae1 mixed in five-fold excess with SisPcc1-like for SEC (Saccharolobus islandicus REY15A). Description: SEC; Kae1 in five-fold excess: 6 μM SisPcc1-like mixed with 30 μM SisKae1, 60°C for 30 min before loading; Superdex 200 Increase 10/300; 200 mM NaCl, 50 mM Tris-HCl pH 8.0, 5% glycerol.
For experiment [4], the target named is T2, His-tagged SisPcc1 co-expressed with no-tagged SisKae1 in E. coli (Saccharolobus islandicus REY15A, UniProt F0NF65 1-91).
T2 construct: Pcc1 of Saccharolobus islandicus REY15A, encoded by SiRe_1278; Pcc1 is insoluble when expressed alone in E. coli; also called His‐Pcc1; source: E. coli BL21(DE3)-Codon plus-RIL, pRSF-Duet1, co-expressed with no-tagged SisKae1; pulled down and co-purified (Ni-NTA, HiTrap Q FF, Superdex 200)
T2 sequence (looked up): T1 sequence (looked up) 2
As to the kind of experiment: SEC; co-expressed Kae1/Pcc1 subcomplex; Superdex 200 Increase 10/300; 200 mM NaCl, 50 mM Tris-HCl pH 8.0, 5% glycerol; masses from protein standards. The note with it: both partners purified.

B1: His-tagged SisPcc1‐like from E. coli (natural protein, Saccharolobus islandicus REY15A, UniProt F0NIH8 1-81, looked up)
chain: MIELRILSEHEDAELIIRSLNVDNVNLPEGMSIQTKVEGKELEIVIKMRITKPNDLMTVRNTADEILAHIKALQSSFDAIS
notes: Pcc1-like (Gon7-like) of Saccharolobus islandicus REY15A, encoded by SiRe_1701; also called His‐SisPcc1‐like; source: E. coli BL21(DE3)-Codon plus-RIL, pRSF-Duet1 (alone, or co-expressed with Flag-tagged SisKae1 or SisPcc1); purified (Ni-NTA, HiTrap Q FF, Superdex 200)
The term stoichiometry N denotes a count of units in the complex or per binding partner. Turning to B1, the results for the stoichiometry N (Pcc1-like per Kae1) in experiment [1] and in experiment [3] were 2 and 1, respectively. For the same molecule, in experiment [2], the “stoichiometry N” value was 1 Kae1:Pcc1:Pcc1-like 1:1:1.

B2: No-tagged SisKae1 from E. coli (natural protein, Saccharolobus islandicus REY15A, UniProt F0NFC9 1-331, looked up)
chain: T1 sequence (looked up) 1
notes: Kae1 of Saccharolobus islandicus REY15A, no tag; Two vectors (pET15b alone; pRSF-Duet1 with His-Pcc1) give the same untagged protein; source: E. coli BL21(DE3)-Codon plus-RIL; alone (pET15b), purified; also co-expressed with His-tagged SisPcc1 (pRSF-Duet1), pulled down and co-purified
B2: in experiment [4], the “stoichiometry N” value is 1 Kae1 per Pcc1 (printed as 2:2).
